Results as given in article PMC5040716.

System: MgaSpn-His (Streptococcus pneumoniae)
Test: EMSA
Conditions: MgaSpn EMSA: 40 mM Tris-HCl pH 7.6, 1 mM DTT, 0.4 mM EDTA, 1-2% glycerol, 50 mM NaCl, 10 mM MgCl2, 500 ug/ml BSA, 2 nM DNA, ambient, 20 min; MgaSpn footprint: …

Substance | Kd [nM]
hlyC 290-bp fragment | 75
hlyR 288-bp fragment | 50
